Biological target: Sso7d-ΔTaq (wild-type fusion) G24W (Sso7d numbering; reverts the mutant fusion to wild type) (Sulfolobus solfataricus? / Thermus aquaticus?) (UniProt P19821)
Conditions: PCR yield ratio primer 57F over 57F5/6, reverse primer 732R, annealing 64 C

Sequence of UniProt P19821 (P19821 whole entry, stated change not applied, the tested form may be a part): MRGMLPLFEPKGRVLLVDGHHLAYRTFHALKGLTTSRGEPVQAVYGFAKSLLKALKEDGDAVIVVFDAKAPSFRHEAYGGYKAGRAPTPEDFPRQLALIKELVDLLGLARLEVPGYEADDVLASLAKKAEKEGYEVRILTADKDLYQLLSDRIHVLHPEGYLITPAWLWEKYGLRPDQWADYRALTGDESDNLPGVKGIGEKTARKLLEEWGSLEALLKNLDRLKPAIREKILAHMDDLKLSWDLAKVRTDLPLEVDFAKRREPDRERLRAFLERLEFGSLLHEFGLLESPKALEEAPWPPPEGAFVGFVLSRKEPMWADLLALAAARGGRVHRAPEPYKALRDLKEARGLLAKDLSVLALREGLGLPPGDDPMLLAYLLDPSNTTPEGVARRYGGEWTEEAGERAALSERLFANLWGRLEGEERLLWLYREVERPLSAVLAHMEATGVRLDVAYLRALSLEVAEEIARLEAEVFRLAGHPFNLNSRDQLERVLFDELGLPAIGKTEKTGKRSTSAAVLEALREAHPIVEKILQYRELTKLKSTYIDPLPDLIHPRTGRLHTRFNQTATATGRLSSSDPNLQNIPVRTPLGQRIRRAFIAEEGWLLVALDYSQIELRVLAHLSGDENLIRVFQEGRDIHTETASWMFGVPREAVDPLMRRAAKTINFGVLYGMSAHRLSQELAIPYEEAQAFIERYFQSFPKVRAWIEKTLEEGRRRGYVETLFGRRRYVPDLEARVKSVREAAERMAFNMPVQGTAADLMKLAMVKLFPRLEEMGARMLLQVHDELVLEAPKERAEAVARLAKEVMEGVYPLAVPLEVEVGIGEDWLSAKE

## TCCGCCCTTCTTCGTCATAACT (double strand) [mismatched primer 57F5/6 on lambda DNA]
  PCR match/mismatch yield ratio (match/mismatch yield ratio): 0.92

Reference: patent publication US20040081963
